From article PMC11569197

How the values were obtained:
[1] = biological target: cone-specific G-protein transducin alpha subunit employed as a Gtα/Giα chimera, non-myristoylated (European robin); test: SPR; Biacore 3000, CM5 chip, amine coupling; Gtα/Giα immobilised, ErCry4a 5-100 nM (and 500 nM) injected; global fit with a two-state-reaction model; 10 mM HEPES/NaOH pH 7.4, 150 mM NaCl, 10 mM MgCl2, 0.005% Tween-20, 3.4 mM EDTA
[2] = biological target: Gtα-EYFP (cone transducin alpha subunit, GNAT2, with C-terminal EYFP) (European robin); test: FRET or BRET; acceptor photobleaching FRET in transiently transfected, fixed QNR/K2 quail neuroretina cells; donor mTurquoise on ErCry4a, acceptor EYFP; confocal microscope, FRET efficiency (Dpost - Dpre)/Dpost

Row | Kd [1] [nM] | ka1 (two-state-reaction model) [1] [M⁻¹ s⁻¹] | kd1 (two-state-reaction model) [1] [s⁻¹] | mean FRET efficiency [2] [%] | Substance
1 | 19.8 | 221000 | 0.00438 | – | European robin cryptochrome 4a (ErCry4a), purified recombinant (natural protein)
2 | – | – | – | 24.5 | mTurquoise-ErCry4a (N-terminally tagged ErCry4a) (natural protein)
